Experimental data as given in paper PMC5359911.

Tests used:
[1] = target: smooth muscle tropomyosin, purified α/β heterodimer of chicken gizzard Tpm1.4 and Tpm2.1 (chicken); test: SPR; BIAcore X100; Tpm amine-coupled to CM5 chip; SMTNL1-TMB 0.12-10 uM injected; 20 mM HEPES pH 7.5, 100 mM KCl, 1 mM DTT, 0.005% Tween-20; 25 C; n = 3
[2] = target: SMTNL1-TMB, Tpm-binding region of smoothelin-like 1 protein (amino acids 195-459), unphosphorylated (UniProt Q99LM3); test: pull-down; competition, apo-CaM: SMTNL1-TMB premixed with Tpm (equimolar or other molar ratios) for 1 h at 4 C, then added to CaM-Sepharose with 1 mM EDTA
[3] = target: smooth muscle tropomyosin, purified α/β heterodimer of chicken gizzard Tpm1.4 and Tpm2.1 (chicken); test: pull-down; Tpm covalently bound to CNBr-activated Sepharose (40 uL); 200 ug SMTNL1-TMB; 20 mM Tris-HCl pH 7.5, 0.1% beta-mercaptoethanol, 2 h at 4 C; washed with 150 mM NaCl; Coomassie stain, densitometry

| Substance | Kd [1] | percent reduction of SMTNL1-TMB binding to apo-CaM-Sepharose by equimolar Tpm [2] | fold recovered against unphosphorylated SMTNL1-TMB [3] |
| --- | --- | --- | --- |
| SMTNL1-TMB, Tpm-binding region of smoothelin-like 1 protein (amino acids 195-459), unphosphorylated (from UniProt Q99LM3 195-459) (domain or fragment) | 3000 nM | – | – |
| smooth muscle tropomyosin, purified α/β heterodimer of chicken gizzard Tpm1.4 and Tpm2.1 (complex) | – | 60% | – |
| SMTNL1-TMB phosphorylated at Ser301 with PKA (from UniProt Q99LM3 195-459) (domain or fragment) | 320 nM | – | 2 fold |
